Patent publication US8715959B2, “Substitution mutant receptors and their use in a nuclear receptor-based inducible gene expression system” (priority 2001, dated 2014)
Where a chain is given by its changes, count along the chain named. Names may count otherwise.

B1: T58A: CfEcR-DEF LBD substitution mutant, Threonine (T) to Alanine (A) (protein, listed as Choristoneura fumiferana)
chain: LTANQQFLIARLIWYQDGYEQPSDEDLKRITQTWQQADDENEESDTPFRQITEMTILAVQLIVEFAKGLPGFAKISQPDQITLLKACSSEVMMLRVARRYDAASDSVLFANNQAYTRDNYRKAGMAYVIEDLLHFCRCMYSMALDNIHYALLTAVVIFSDRPGLEQPQLVEEIQRYYLNTLRIYILNQLSGSARSSVIYGKILSILSELRTLGMQNSNMCISLKLKNRKLPPFLEEIWDV
B2: V107I/Y127E: CfEcR-DEF LBD double mutant, Valine (V) to Isoleucine (I) and Tyrosine (Y) to Glutamine (E) (protein, listed as Choristoneura fumiferana)
chain: B1 chain with A58T, V107I, Y127E
B3: T52V: CfEcR-DEF LBD substitution mutant, Threonine (T) to Valine (V) (protein, listed as Choristoneura fumiferana)
chain: B1 chain with T52V, A58T
B4: V96D: CfEcR-DEF LBD substitution mutant, Valine (V) to Aspartic Acid (D) (protein, listed as Choristoneura fumiferana)
chain: B1 chain with A58T, V96D
B5: V96T/V107I/R175E: CfEcR-DEF LBD triple mutant, V96T, V107I and R175E (protein, listed as Choristoneura fumiferana)
chain: B1 chain with A58T, V96T, V107I, R175E
B6: V96T: CfEcR-DEF LBD substitution mutant, Valine (V) to Threonine (T) (protein, listed as Choristoneura fumiferana)
chain: B1 chain with A58T, V96T
B7: Y127E/R175E: CfEcR-DEF LBD double mutant, Y127E and R175E (protein, listed as Choristoneura fumiferana)
chain: B1 chain with A58T, Y127E, R175E
B8: V107I: CfEcR-DEF LBD substitution mutant, Valine (V) to Isoleucine (protein, listed as Choristoneura fumiferana)
chain: B1 chain with A58T, V107I
B9: V96A: CfEcR-DEF LBD substitution mutant, Valine (V) to Alanine (A) (protein, listed as Choristoneura fumiferana)
chain: B1 chain with A58T, V96A
B10: T52A/V107I/R175E: CfEcR-DEF LBD triple mutant, T52A, V107I and R175E (protein, listed as Choristoneura fumiferana)
chain: B1 chain with T52A, A58T, V107I, R175E
B11: V96A/V107I/R175E: CfEcR-DEF LBD triple mutant, V96A, V107I and R175E (protein, listed as Choristoneura fumiferana)
chain: B1 chain with A58T, V96A, V107I, R175E
B12: T52I: CfEcR-DEF LBD substitution mutant, Threonine (T) to Isoleucine (I) (protein, listed as Choristoneura fumiferana)
chain: B1 chain with T52I, A58T
B13: V107I/YL27E/R175E: CfEcR-DEF LBD triple mutant, V107I, Y127E and R175E (protein, listed as Choristoneura fumiferana)
chain: B1 chain with A58T, V107I, Y127E, R175E
B14: V96M: CfEcR-DEF LBD substitution mutant, Valine (V) to Methionine (M) (protein, listed as Choristoneura fumiferana)
chain: B1 chain with A58T, V96M
B15: T52A: CfEcR-DEF LBD substitution mutant, Threonine (T) to Alanine (A) (protein, listed as Choristoneura fumiferana)
chain: B1 chain with T52A, A58T
B16: R175E: CfEcR-DEF LBD substitution mutant, Arginine (R) to Glutamine (E) (protein, listed as Choristoneura fumiferana)
chain: B1 chain with A58T, R175E
B17: T55A: CfEcR-DEF LBD substitution mutant, Threonine (T) to Alanine (A) (protein, listed as Choristoneura fumiferana)
chain: B1 chain with T55A, A58T
B18: V107I/R175E: CfEcR-DEF LBD double mutant, V107I and R175E (protein, listed as Choristoneura fumiferana)
chain: B1 chain with A58T, V107I, R175E
B19: T52L: CfEcR-DEF LBD substitution mutant, Threonine (T) to Leucine (L) (protein, listed as Choristoneura fumiferana)
chain: B1 chain with T52L, A58T
B20: T52V/V107I/R175E: CfEcR-DEF LBD triple mutant, T52V, V107I and R175E (protein, listed as Choristoneura fumiferana)
chain: B1 chain with T52V, A58T, V107I, R175E
B21: E20A: CfEcR-DEF LBD substitution mutant, Glutamic Acid (E) to Alanine (A) (protein, listed as Choristoneura fumiferana)
chain: B1 chain with E20A, A58T

Tested on: CfEcR-DEF
Assay: GAL4/mutant CfEcR-DEF + VP16/LmUSP-EF GAL4-driven luciferase reporter transactivation in NIH3T3 cells
Type: cell-based, Choristoneura fumiferana
Conditions: for Fold increase over WT, 2.5 μM GS™-E: 2.5 μM GS™-E non-steroidal ligand; for Fold increase over WT, 2.5 μM GS™-E / Fold increase over WT, 2.5 μM PonA / Fold increase over WT, 10 nM GS™-E / Fold increase over WT, 10 nM PonA: NIH3T3 cells, relative to Gal4/wild-type CfEcR-DEF switch activity; for Fold increase over WT, 2.5 μM PonA: 2.5 μM PonA steroidal ligand; for Fold increase over WT, 10 nM GS™-E: 10 nM GS™-E non-steroidal ligand; for Fold increase over WT, 10 nM PonA: 10 nM PonA steroidal ligand
Procedure: DNAs corresponding to the various switch constructs outlined in Example 1, specifically switches 1.1-1.13, were transfected into mouse NIH3T3 cells (ATCC) or L57 cells (Dr. Peter Cherbas; Indiana University) as follows. Standard methods for culture and maintenance of the cells were followed. […] Superfect™ (Qiagen Inc.) was used for 3T3 cells and Lipofectamine™ (LifeTechnologies) was used for L57 cells as the transfection reagents. For 12-well plates, 4 μl of Superfect™ or Lipofectamine™ was mixed with 100 μl of growth medium. One μg of reporter construct and 0.25 μg of each receptor construct of the receptor pair to be analyzed were added to the transfection mix. […] The cells were harvested and reporter activity was assayed.
Cells were harvested 40 hours after adding ligands. […] Twenty μl of lysate were assayed.
Briefly, Applicants mutated amino acid residues predicted to be critical for ecdysteroid binding into alanine and created GAL4/mutantCfEcR-DEF cDNA gene expression cassettes as described in Example 1 above using the Quikchange PCR-mediated site-directed mutagenesis kit (Stratagene, La Jolla, Calif.). The mutated and the WT cDNAs were tested in GAL4-driven luciferase reporter assays.
DNAs corresponding to the various switch constructs outlined in Example 1, specifically switches 1.1-1.2, were transfected into mouse NIH3T3 cells (ATCC) as follows. […] Two μl of Superfect™ was mixed with 100 μl of growth medium and 50 ng of either GAL4/wild-type EcR or Gal4/mutant EcR cassette, 50 ng of VP16/LmUSP-EF and 200 ng of pFRLuc were added to the transfection mix. […] The cells were harvested and reporter activity was assayed as described above.

Molecule | Fold increase over WT, 2.5 μM GS™-E [fold] | Fold increase over WT, 2.5 μM PonA [fold] | Fold increase over WT, 10 nM GS™-E [fold] | Fold increase over WT, 10 nM PonA [fold] | further results
B1 | 0.8 | 0.008 |  |  | non-steroid activity (summary of Table 10) (GS™-E, CfEcR-DEF point mutants): not significantly affected; steroid binding activity (summary of Table 10) (PonA, CfEcR-DEF point mutants): essentially eliminated
B2 |  |  | 314.6 | 35.8 | 
B3 | 17.3 | 35.7 |  |  | 
B4 | 3.07 | 3.1 |  |  | 
B5 |  |  | 0.4 | 485.7 | 
B6 | 0.018 | 45 |  |  | 
B7 |  |  | 622.8 | 42.2 | 
B8 |  |  | 12.4 | 26.6 | 
B9 | 0.35 | 408 |  |  | 
B10 |  |  | 2.3 | 20.3 | 
B11 |  |  | 21.1 | 1005.1 | 
B12 | 8 | 8 |  |  | 
B13 |  |  | 124.3 | 122.3 | 
B14 | 122 | 3.37 |  |  | 
B15 | 1.5 | 0.5 |  |  | 
B16 |  |  | 22.0 | 11.3 | 
B17 | 1.7 | 0.13 |  |  | 
B18 |  |  | 386.4 | 1194.4 | 
B19 | 0.26 | 3.4 |  |  | 
B20 |  |  | 62.8 | 136.6 | 
B21 | 0.9 | 0.35 |  |  | 
